Target: T1, Pituitary Adenylate Cyclase-Activating Polypeptide 38 (PACAP38) (Homo sapiens, not fully specified; C-terminal lysine is amidated; N-terminally or C-terminally biotinylated in the HTRF binding assay and N-terminally biotinylated in the PC-12 cell binding assay)
T1 construct: synthetic peptide (American Peptide; AnaSpec for biotinylated forms); also called human PACAP38; PACAP 1-38
T1 peptide: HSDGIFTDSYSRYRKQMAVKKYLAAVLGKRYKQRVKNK
Test: SPR ProteOn, Ab immobilized

Kd: 0.027 nM
koff: 1e-05 s⁻¹
B1: Ab22 (antibody, V domains shown)
VH: QEQLVESGGGLVQPEGSLTLTCTASGFDFSSNAMCWVRQAPGKGLEWIGSIYNADGKNYYAIWAKGRFTISRTSSTTVTLQMTSLTAADTATYFCARDFDLWGQGTLVTVSS
VL: AAVLTQTPSPVSAAVGGTVTINCQSSQSVYDNDWLAWFQQKPGQPPKLLIYLTSTLASGVPSRFSGSGSGTQFTLTISGVQCDDAATYYCLGGYDEDGDTHVFGGGTEVVVKR

Source: US20210324068A1 (H LUNDBECK A S, published 2021)
